Where a chain is given by its changes, count along the chain named.
B1: VH1-D2/LOE7 (format printed as IgG1/IgG4 in Table 6, scFv/IgG1/IgG4 in Table 7) (antibody, V domains shown)
VH: QVQLVESGGGLVQPGRSLRLSCAASGFTFDDYAMHWVRQAPGKGLDWVSAITWNSGHIDYADSVEGRFAVSRDNAKNALYLQMNSLRPEDTAVYYCAKVSYLSTASSLDYWGQGTLVTVSS
VL: not shown
B2: VH1-D2.N/LOE7.A IgG4 (antibody, V domains shown)
VH: B1 VH with Y110N
VL: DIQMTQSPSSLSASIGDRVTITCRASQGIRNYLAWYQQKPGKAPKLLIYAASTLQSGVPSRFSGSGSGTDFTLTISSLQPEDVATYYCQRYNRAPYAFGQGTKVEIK
notes: IgG4
B3: VH1-D2.N/LOE7.T IgG4 (antibody, V domains shown)
VH: B1 VH with Y110N
VL: not shown
notes: IgG4
B4: VH1-D2.Y/LOE7.A IgG4 (antibody, V domains shown)
VH: B1 VH
VL: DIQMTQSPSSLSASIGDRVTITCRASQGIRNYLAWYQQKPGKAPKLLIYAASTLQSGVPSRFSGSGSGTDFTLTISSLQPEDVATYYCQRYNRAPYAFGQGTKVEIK
notes: IgG4
B5: VH1-D2/2SD4 VL scFv (scFv, V domains shown)
VH: B1 VH
VL: DIQMTQSPSSLSASIGDRVTITCRASQGIRNYLAWYQQKPGKAPKLLIYAASTLQSGVPSRFSGSGSGTDFTLTISSLQPEDVATYYCQKYNSAPYAFGQGTKVEIK
notes: scFv
B6: VH1-D2/EP B12 scFv (scFv, V domains shown)
VH: B1 VH
VL: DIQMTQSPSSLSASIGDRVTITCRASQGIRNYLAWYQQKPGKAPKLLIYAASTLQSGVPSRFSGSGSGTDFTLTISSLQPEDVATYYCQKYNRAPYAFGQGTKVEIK
notes: scFv

Experiments:
[1] = target: recombinant human TNFα (human, UniProt P01375 77-233, The active form is a noncovalent homotrimer; one protomer is given.); assay: cell-based or functional assay
[2] = target: T1, biotinylated recombinant human TNFα (human, UniProt P01375 77-233, biotinylated (D-biotinyl-ε-aminocaproic acid N-hydroxysuccinimide ester, 2:1 molar ratio of biotin to rhTNFα)); assay: SPR (BIAcore), biotinylated rhTNFα, format IgG1/IgG4
T1 construct: mature; Immobilized via streptavidin on the BIAcore chip; also called biotinylated rhTNFα; biotinylated rhTNF
Experimental: (§1) Before injection of the protein and immediately afterward, PBS buffer alone flowed through each flow cell. […] Antibodies (20 μg/ml) were diluted in PBS running buffer and 25 μl aliquots were injected through the immobilized protein matrices at a flow rate of 5 μl/min. Prior to injection of antibody, and immediately afterwards, PBS buffer alone flowed through each flow cell. The net difference in baseline signal and signal after completion of antibody injection was taken to represent the binding value of the particular sample. Biosensor matrices were regenerated using 100 mM HCI before injection of the next sample. To determine the off rate (Koff), on rate (Kₒₙ), association rate (Kₐ) and dissociation rate (Kd) constants, BIAcore kinetic evaluation software (version 2.1) was used.

[3] = target: T1, biotinylated recombinant human TNFα; assay: SPR (BIAcore), biotinylated rhTNFα, IgG4
Experimental: as §1

[4] = target: T1, biotinylated recombinant human TNFα; assay: SPR (BIAcore), biotinylated rhTNFα, scFv
Experimental: as §1

[5] = target: T1, biotinylated recombinant human TNFα; assay: SPR (BIAcore), scFv; reference taken to be VH1-D2/LOE7
Experimental: as §1

[6] = target: T1, biotinylated recombinant human TNFα; assay: SPR (BIAcore), scFv, reference VH1-D2/LOE7
Experimental: as §1

T1 sequence (P01375 77-233 limits assumed): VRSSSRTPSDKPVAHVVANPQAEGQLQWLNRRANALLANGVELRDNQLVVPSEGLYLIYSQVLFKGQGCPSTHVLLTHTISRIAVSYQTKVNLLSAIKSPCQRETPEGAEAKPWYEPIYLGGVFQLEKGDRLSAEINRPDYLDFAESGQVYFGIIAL
recombinant human TNFα, sequence (P01375 77-233 limits assumed): as above

Row | Binder | IC50, neutralization of TNFα-induced L929 cytotoxicity [1] [nM] | koff [2] [s⁻¹] | koff [3] [s⁻¹] | koff [4] [s⁻¹] | fold faster off rate [5] [fold] | fold faster off rate against LOE7 [6] [fold]
1 | B1 | 0.34 | 7.7e-05 |  |  |  | 
2 | B2 | 0.062 |  | 3.2e-05 |  |  | 
3 | B3 | 0.13 |  | 2.1e-05 |  |  | 
4 | B4 | 0.028 |  | 2.7e-05 |  |  | 
5 | B5 | 10 |  |  | 0.00194 | 5 | 
6 | B6 |  |  |  | 0.0008 |  | 2
